This series concerns the molecule itself. Put plainly: cross-linking; HEK293T cells transfected with Flag-Tas and empty vector or HA-SGK1; lysate supernatant incubated with cross-linking buffer at room temperature for 30 min; Western blot.

B1: prototype foamy virus Tas protein (Flag-Tas) (natural protein)
chain: MDSYEKEESVASTSGIQDLQTLSELVGPENAGEGELTIAEEPEENPRRPRRYTKREVKCVSYHAYKEIEDKHPQHIKLQDWIPTPEEMSKSLCKRLILCGLYSAEKASEILRMPFTVSWEQSDTDPDCFIVSYTCIFCDAVIHDPMPIRWDPEVGIWVKYKPLRGIVGSAVFIMHKHQRNCSLVKPSTSCSEGPKPRPRHDPVLRCDMFEKHHKPRQKRPRRRSIDNESCASSSDTMANEPGSLCTNPLWNPGPLLSGLLEESSNLPNLEVHMSGGPFWEEVYGDSILGPPSGSGEHSVL
notes: also called PFV Tas; Myc-Tas; source: HEK293T, transfected, in lysate
In the case of B1, the “stoichiometry N” value was 2.
